The source of these data is the supplement of paper PMC10567573.

B1: CHCHD6 (parent)
chain: MYKLSSEQFHEAASKMESTIKPRR
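Further: lentivirally expressed fusions sorted by FACS into six bins by GFP to DsRed ratio, PSI derived from sequencing read proportions per bin multiplied by bin number.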

In the data set the parent is B1. Briefly: protein stability index of a GFP-peptide fusion (GPS, HEK-293T) (PSI 1-6); higher = more stable. The conditions noted are these: c terminus: a fixed tail appended.
With MYKLSSEQFYEAASKMESTIKPRR, the protein stability index came to 3.52.

Regarding MYKLSSEQFPEAASKMESTIKPRR, the protein stability index amounted to 4.08.

As for MYKLSSEQFLEAASKMESTIKPRR, the protein stability index was determined as 3.69.

MYKLSSEQFEEAASKMESTIKPRR: the protein stability index stood at 4.24.

Take MYKLSSEQFMEAASKMESTIKPRR: the protein stability index came out at 3.37.

Turning to MYKLSSEQFGEAASKMESTIKPRR, the protein stability index came to 4.28.

Regarding MYKLSSEQFWEAASKMESTIKPRR, the protein stability index turned out to be 2.54.

Consider MYKLSSEQFIEAASKMESTIKPRR, for which the protein stability index is 3.08.

For MYKLSSEQFDEAASKMESTIKPRR, the protein stability index was found to be 4.15.

With MYKLSSEQFTEAASKMESTIKPRR, the protein stability index amounted to 3.3.

Take MYKLSSEQFREAASKMESTIKPRR: the protein stability index worked out at 3.82.

As to MYKLSSEQFQEAASKMESTIKPRR, the protein stability index amounted to 3.98.

Consider MYKLSSEQFFEAASKMESTIKPRR, for which the protein stability index amounted to 3.44.

For the variant MYKLSSEQFNEAASKMESTIKPRR, the protein stability index is 3.41.

Take MYKLSSEQFVEAASKMESTIKPRR: the protein stability index came to 3.78.

Turning to MYKLSSEQFKEAASKMESTIKPRR, the protein stability index was 4.

With MYKLSSEQFSEAASKMESTIKPRR, the protein stability index stood at 4.15.

On to MYKLSSEQFHEAASKMESSIKPRR, for which the protein stability index is 3.82.

As for MYKLSSEQFHEAASKMESMIKPRR, the protein stability index is 3.72.

Turning to MYKLSSEQFHEAASKMESHIKPRR, the protein stability index was 4.29.

Consider MYKLSSEQFHEAASKMESFIKPRR, for which the protein stability index amounted to 3.63.

Turning to MYKLSSEQFHEAASKMESEIKPRR, the protein stability index came out at 3.89.

Turning to MYKLSSEQFHEAASKMESCIKPRR, the protein stability index worked out at 3.67.

On to MYKLSSEQFHEAASKMESWIKPRR, for which the protein stability index was found to be 2.15.

In the case of MYKLSSEQFHEAASKMESVIKPRR, the protein stability index was determined as 3.82.

In the case of MYKLSSEQFHEAASKMESNIKPRR, the protein stability index was determined as 4.

With MYKLSSEQFHEAASKMESIIKPRR, the protein stability index turned out to be 3.12.

Consider MYKLSSEQFHEAASKMESDIKPRR, for which the protein stability index was 3.49.

As for MYKLSSEQFHEAASKMESKIKPRR, the protein stability index was 3.77.

MYKLSSEQFHEAASKMESAIKPRR: the protein stability index stood at 3.78.

Turning to MYKLSSEQFHEAASKMESYIKPRR, the protein stability index is 3.4.

Regarding MYKLSSEQFHEAASKMESGIKPRR, the protein stability index came out at 3.76.

MYKLSSEQFHEAASKMESLIKPRR: the protein stability index stood at 3.67.

Take MYKLSSEQFHEAASKMESRIKPRR: the protein stability index worked out at 3.88.

Regarding MYKLSSEQFHEAASKMESPIKPRR, the protein stability index is 3.68.

Consider MYKLSSEQFHEAASKMESQIKPRR, for which the protein stability index is 4.09.

With MYKLSSEQFHEAAKKMESTIKPRR, the protein stability index is 3.68.

MYKLSSEQFHEAADKMESTIKPRR: the protein stability index turned out to be 3.61.

On to MYKLSSEQFHEAAYKMESTIKPRR, for which the protein stability index came to 2.83.

With MYKLSSEQFHEAAWKMESTIKPRR, the protein stability index worked out at 3.18.

Consider MYKLSSEQFHEAAHKMESTIKPRR, for which the protein stability index was determined as 3.9.

In the case of MYKLSSEQFHEAAVKMESTIKPRR, the protein stability index stood at 4.11.

On to MYKLSSEQFHEAAGKMESTIKPRR, for which the protein stability index amounted to 3.87.

MYKLSSEQFHEAAAKMESTIKPRR: the protein stability index came out at 3.56.

As to MYKLSSEQFHEAANKMESTIKPRR, the protein stability index was determined as 3.78.

On to MYKLSSEQFHEAALKMESTIKPRR, for which the protein stability index came out at 3.1.

Consider MYKLSSEQFHEAAMKMESTIKPRR, for which the protein stability index stood at 3.47.

In the case of MYKLSSEQFHEAATKMESTIKPRR, the protein stability index was determined as 3.81.

With MYKLSSEQFHEAAIKMESTIKPRR, the protein stability index amounted to 2.86.

On to MYKLSSEQFHEAAPKMESTIKPRR, for which the protein stability index was determined as 3.82.

On to MYKLSSEQFHEAAEKMESTIKPRR, for which the protein stability index is 4.12.

Regarding MYKLSSEQFHEAAFKMESTIKPRR, the protein stability index is 3.05.

With MYKLSSEQFHEAARKMESTIKPRR, the protein stability index was 3.48.

MYKLSSEQFHEAAQKMESTIKPRR: the protein stability index is 4.24.

Consider MYKLSSEQFHEAACKMESTIKPRR, for which the protein stability index was 3.29.

Consider MYKLSSEQFHEAASKMEITIKPRR, for which the protein stability index was found to be 2.68.

MYKLSSEQFHEAASKMEPTIKPRR: the protein stability index came to 3.8.

As for MYKLSSEQFHEAASKMEYTIKPRR, the protein stability index came out at 3.42.

As to MYKLSSEQFHEAASKMEFTIKPRR, the protein stability index worked out at 2.78.

Turning to MYKLSSEQFHEAASKMEDTIKPRR, the protein stability index worked out at 4.24.

For the variant MYKLSSEQFHEAASKMENTIKPRR, the protein stability index was determined as 3.97.

Regarding MYKLSSEQFHEAASKMEETIKPRR, the protein stability index was found to be 3.71.

Consider MYKLSSEQFHEAASKMELTIKPRR, for which the protein stability index was 3.4.

Take MYKLSSEQFHEAASKMEHTIKPRR: the protein stability index was determined as 4.51.

Consider MYKLSSEQFHEAASKMEVTIKPRR, for which the protein stability index stood at 3.77.

On to MYKLSSEQFHEAASKMEATIKPRR, for which the protein stability index turned out to be 4.41.

Take MYKLSSEQFHEAASKMECTIKPRR: the protein stability index amounted to 3.99.

In the case of MYKLSSEQFHEAASKMEQTIKPRR, the protein stability index stood at 3.47.

For MYKLSSEQFHEAASKMEMTIKPRR, the protein stability index was 3.31.

MYKLSSEQFHEAASKMERTIKPRR: the protein stability index stood at 4.13.

With MYKLSSEQFHEAASKMEWTIKPRR, the protein stability index was 2.98.

In the case of MYKLSSEQFHEAASKMETTIKPRR, the protein stability index came to 4.1.

In the case of MYKLSSEQFHEAASKMEKTIKPRR, the protein stability index amounted to 3.58.

In the case of MYKLSSEQFHEAASKMEGTIKPRR, the protein stability index was 3.7.

Turning to MYKLSSEQFHEMASKMESTIKPRR, the protein stability index amounted to 3.14.

As to MYKLSSEQFHEYASKMESTIKPRR, the protein stability index is 3.39.

In the case of MYKLSSEQFHEIASKMESTIKPRR, the protein stability index was found to be 2.88.

MYKLSSEQFHESASKMESTIKPRR: the protein stability index came to 3.97.

On to MYKLSSEQFHEQASKMESTIKPRR, for which the protein stability index amounted to 4.04.

Consider MYKLSSEQFHEGASKMESTIKPRR, for which the protein stability index worked out at 3.69.

MYKLSSEQFHEFASKMESTIKPRR: the protein stability index turned out to be 3.27.

Take MYKLSSEQFHEWASKMESTIKPRR: the protein stability index was 2.55.

On to MYKLSSEQFHEPASKMESTIKPRR, for which the protein stability index was 4.23.

On to MYKLSSEQFHETASKMESTIKPRR, for which the protein stability index worked out at 3.75.

Consider MYKLSSEQFHEEASKMESTIKPRR, for which the protein stability index came to 4.56.

On to MYKLSSEQFHEDASKMESTIKPRR, for which the protein stability index amounted to 4.17.

For the variant MYKLSSEQFHENASKMESTIKPRR, the protein stability index was determined as 2.9.

Turning to MYKLSSEQFHEVASKMESTIKPRR, the protein stability index was found to be 3.58.

Turning to MYKLSSEQFHEHASKMESTIKPRR, the protein stability index turned out to be 4.12.

For MYKLSSEQFHEKASKMESTIKPRR, the protein stability index worked out at 3.59.

With MYKLSSEQFHELASKMESTIKPRR, the protein stability index was found to be 2.92.

Consider MYKLSSEQFHERASKMESTIKPRR, for which the protein stability index is 3.55.

For the variant MYKLSSEQFHECASKMESTIKPRR, the protein stability index came to 3.31.

In the case of MYKLSSEQFHEAASKTESTIKPRR, the protein stability index was 4.34.
